# Reference: article PMC6173638 (Cell, 2018)
# T1: GapR(11-89) L83M SeMet (Caulobacter crescentus, UniProt B8H4R9 11-89, L83M)
# T1 sequence: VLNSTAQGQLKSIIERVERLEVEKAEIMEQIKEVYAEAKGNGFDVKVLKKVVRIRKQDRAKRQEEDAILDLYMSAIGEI
# T2: GapR(11-89) WT (Caulobacter crescentus, UniProt B8H4R9 11-89)
# T2 sequence: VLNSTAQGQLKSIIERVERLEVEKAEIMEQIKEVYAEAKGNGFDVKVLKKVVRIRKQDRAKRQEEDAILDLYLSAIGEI
# What was measured:
# [1] = target: Bosea sp. Root381 GapR, wild type (Bosea sp. Root381); assay: crystal structure
# [2] = target: Bosea sp. Root381 GapR(L48M-I54M-L73M), selenomethionine substituted (Bosea sp. Root381); assay: crystal structure
# crystal structure = target: the molecule itself; assay: crystal structure
# GapR(11-89) L83M SeMet = target: T1, GapR(11-89) L83M SeMet; assay: X-ray crystallography
# GapR(11-89) WT = target: T2, GapR(11-89) WT; assay: X-ray crystallography
# SEC-MALS = target: the molecule itself; assay: SEC-MALS
molecule,measurement,setting,value
"Bosea sp. Root381 GapR, wild type (natural protein)",stoichiometry N,[1],4
"Bosea sp. Root381 GapR(L48M-I54M-L73M), selenomethionine substituted (natural protein)",stoichiometry N,[2],2
"C. crescentus GapR(11-89) L83M, selenomethionine substituted (domain or fragment, Caulobacter crescentus, UniProt B8H4R9 11-89, looked up, selenomethionine substituted) VLNSTAQGQLKSIIERVERLEVEKAEIMEQIKEVYAEAKGNGFDVKVLKKVVRIRKQDRAKRQEEDAILDLYMSAIGEI",stoichiometry N,crystal structure,4
AT-rich crystallization 11-mer (dsDNA) DNA 1: TTAAAATTAAA DNA 2: TTTAATTTTAA,binding result,GapR(11-89) L83M SeMet,binds
same,binding result,GapR(11-89) WT,binds
"Caulobacter crescentus GapR, untagged (natural protein, UniProt B8H4R9 1-89, looked up) MADDAIPHTDVLNSTAQGQLKSIIERVERLEVEKAEIMEQIKEVYAEAKGNGFDVKVLKKVVRIRKQDRAKRQEEDAILDLYLSAIGEI",stoichiometry N,SEC-MALS,2
